Reference: the supplement of paper PMC7125110
± gives the standard error. Variants at the floor of the assay were thinned out.

B1: glmS ribozyme (parent)
chain: AUAAAAGCGCCAGAACUACAGAAAUGUAGUUGACGAGGAGGAGGUUUAUCGAAUUUUCGGCGGAUGCCUCCAAA

Experiments:
Details in all cases: with glucosamine-6-phosphate
glucosamine-6-phosphate [1] = variants of: B1; experiment: self-cleavage kobs at 40 uM GlcN6P; higher = faster cleavage; RNA array
Outline: (§1)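 Barcoded ribozyme variants, transcribed in situ by E. coli RNA polymerase on sequenced MiSeq chips, were followed via a hybridised Cy3 probe at 37 °C. Glucosamine-6-phosphate ranged from 40 μM to 10 mM in HEPES/KCl/Mg(OAc)2 buffer. kobs came from decay fits to per-tile medians, and kcat and KM from weighted Michaelis–Menten fits.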

glucosamine-6-phosphate [2] = variants of: B1; experiment: self-cleavage kobs at 2500 uM GlcN6P; higher = faster cleavage; RNA array
Outline: as §1

glucosamine-6-phosphate [3] = variants of: B1; experiment: self-cleavage kobs at 10000 uM GlcN6P; higher = faster cleavage; RNA array
Outline: as §1

glucosamine-6-phosphate [4] = variants of: B1; experiment: self-cleavage kobs at 160 uM GlcN6P; higher = faster cleavage; RNA array
Outline: as §1

glucosamine-6-phosphate [5] = variants of: B1; experiment: self-cleavage kobs at 640 uM GlcN6P; higher = faster cleavage; RNA array
Outline: as §1

Row | Variant | self-cleavage kobs at 40 uM GlcN6P (glucosamine-6-phosphate [1]) [s⁻¹] | self-cleavage kobs at 2500 uM GlcN6P (glucosamine-6-phosphate [2]) [s⁻¹] | self-cleavage kobs at 10000 uM GlcN6P (glucosamine-6-phosphate [3]) [s⁻¹] | self-cleavage kobs at 160 uM GlcN6P (glucosamine-6-phosphate [4]) [s⁻¹] | self-cleavage kobs at 640 uM GlcN6P (glucosamine-6-phosphate [5]) [s⁻¹]
1 | G9U A15C G44C U47C | < 1e-05 | < 1e-05 | < 1e-05 | – | –
2 | G9C C11U U31C A36G G38A C50G U69G C70G | 0.00075 ± 0.00022 | – | 0.000818 ± 0.00021 | – | –
3 | G9U U45G C50G | < 1e-05 | – | < 1e-05 | < 1e-05 | < 1e-05
4 | C10G A42G | < 1e-05 | – | – | < 1e-05 | < 1e-05
5 | C10G A42C | < 1e-05 | – | – | – | –
6 | C8U A39U U45G C70G | < 1e-05 | – | < 1e-05 | – | –
7 | C8U G51C | < 1e-05 | < 1e-05 | < 1e-05 | < 1e-05 | –
8 | C10A G62U | < 1e-05 | – | < 1e-05 | < 1e-05 | –
9 | G9U A48G | < 1e-05 | – | < 1e-05 | < 1e-05 | < 1e-05
10 | C10G G32A | < 1e-05 | – | < 1e-05 | – | –
11 | C10G A36C G43C | < 1e-05 | – | < 1e-05 | – | < 1e-05
12 | C10G A52U G59C | < 1e-05 | < 1e-05 | – | < 1e-05 | < 1e-05
13 | C10G G41C | < 1e-05 | < 1e-05 | < 1e-05 | < 1e-05 | < 1e-05
14 | G9A C10A C11U U56G C71U | < 1e-05 | < 1e-05 | < 1e-05 | – | –
15 | G9C G29U | < 1e-05 | – | < 1e-05 | < 1e-05 | < 1e-05
16 | C8U G35C | < 1e-05 | < 1e-05 | < 1e-05 | < 1e-05 | –
17 | C8U C10A C50A | < 1e-05 | – | – | – | –
18 | C8U C10A C50G | 9.57e-05 ± 2e-05 | 8.56e-05 ± 2.1e-05 | 9.18e-05 ± 1.7e-05 | 0.000179 ± 2.8e-05 | –
19 | G9U G37A | < 1e-05 | < 1e-05 | – | < 1e-05 | –
20 | G9C C71G | < 1e-05 | < 1e-05 | < 1e-05 | < 1e-05 | < 1e-05

Row | Variant | self-cleavage kobs at 40 uM GlcN6P (glucosamine-6-phosphate [1]) [s⁻¹] | self-cleavage kobs at 2500 uM GlcN6P (glucosamine-6-phosphate [2]) [s⁻¹] | self-cleavage kobs at 10000 uM GlcN6P (glucosamine-6-phosphate [3]) [s⁻¹] | self-cleavage kobs at 160 uM GlcN6P (glucosamine-6-phosphate [4]) [s⁻¹] | self-cleavage kobs at 640 uM GlcN6P (glucosamine-6-phosphate [5]) [s⁻¹]
21 | C10A G38U G40A | < 1e-05 | < 1e-05 | < 1e-05 | < 1e-05 | < 1e-05
22 | G9A A48G | < 1e-05 | < 1e-05 | < 1e-05 | – | < 1e-05
23 | C10A C11G | < 1e-05 | – | – | < 1e-05 | < 1e-05
24 | G9C A53U | < 1e-05 | < 1e-05 | < 1e-05 | < 1e-05 | < 1e-05
25 | G9C A53C | < 1e-05 | – | < 1e-05 | < 1e-05 | < 1e-05
26 | G9A U57G C67U | < 1e-05 | – | < 1e-05 | – | –
27 | G9A G29A U31A G35U A36C C70U | < 1e-05 | – | < 1e-05 | – | –
28 | C10G G37U A42C | < 1e-05 | – | – | – | –
29 | C10U A14U C16G | < 1e-05 | – | – | – | –
30 | G9U G13C | < 1e-05 | – | < 1e-05 | < 1e-05 | < 1e-05
31 | C10A G66U | < 1e-05 | – | – | < 1e-05 | –
32 | G9U C68U C70U | < 1e-05 | < 1e-05 | < 1e-05 | < 1e-05 | < 1e-05
33 | C8U C34G | < 1e-05 | – | < 1e-05 | < 1e-05 | –
34 | C10G C50G | 5.37e-05 ± 1.8e-05 | 9.17e-05 ± 2.1e-05 | 4.6e-05 ± 1.1e-05 | 0.000187 ± 3.5e-05 | 0.00026 ± 4.4e-05
35 | C10U A14G A52U G60U | < 1e-05 | < 1e-05 | < 1e-05 | – | –
36 | C10U A52U | < 1e-05 | < 1e-05 | < 1e-05 | < 1e-05 | < 1e-05
37 | G9A G62C | < 1e-05 | – | < 1e-05 | – | < 1e-05
38 | C10A G32C G41A | < 1e-05 | – | – | – | –
39 | G9A A36C U49C | < 1e-05 | < 1e-05 | < 1e-05 | – | –
40 | C10A G40C | < 1e-05 | – | < 1e-05 | < 1e-05 | < 1e-05
